Target: STAG2^R370Q–RAD21 complex (UniProt Q8N3U4)
Assay: ITC; MicroCal iTC 200, 25 °C; 20 mM Tris pH 7.7, 150 mM NaCl, 0.5 mM TCEP; 300 μl of 50 μM STAG2–RAD21 in the cell, 500 μM CTCF peptide injected as 16 x 2.5 μl; one-site binding model

STAG2^R370Q–RAD21 complex, sequence (Q8N3U4 whole entry R370Q, chain 1 of 2): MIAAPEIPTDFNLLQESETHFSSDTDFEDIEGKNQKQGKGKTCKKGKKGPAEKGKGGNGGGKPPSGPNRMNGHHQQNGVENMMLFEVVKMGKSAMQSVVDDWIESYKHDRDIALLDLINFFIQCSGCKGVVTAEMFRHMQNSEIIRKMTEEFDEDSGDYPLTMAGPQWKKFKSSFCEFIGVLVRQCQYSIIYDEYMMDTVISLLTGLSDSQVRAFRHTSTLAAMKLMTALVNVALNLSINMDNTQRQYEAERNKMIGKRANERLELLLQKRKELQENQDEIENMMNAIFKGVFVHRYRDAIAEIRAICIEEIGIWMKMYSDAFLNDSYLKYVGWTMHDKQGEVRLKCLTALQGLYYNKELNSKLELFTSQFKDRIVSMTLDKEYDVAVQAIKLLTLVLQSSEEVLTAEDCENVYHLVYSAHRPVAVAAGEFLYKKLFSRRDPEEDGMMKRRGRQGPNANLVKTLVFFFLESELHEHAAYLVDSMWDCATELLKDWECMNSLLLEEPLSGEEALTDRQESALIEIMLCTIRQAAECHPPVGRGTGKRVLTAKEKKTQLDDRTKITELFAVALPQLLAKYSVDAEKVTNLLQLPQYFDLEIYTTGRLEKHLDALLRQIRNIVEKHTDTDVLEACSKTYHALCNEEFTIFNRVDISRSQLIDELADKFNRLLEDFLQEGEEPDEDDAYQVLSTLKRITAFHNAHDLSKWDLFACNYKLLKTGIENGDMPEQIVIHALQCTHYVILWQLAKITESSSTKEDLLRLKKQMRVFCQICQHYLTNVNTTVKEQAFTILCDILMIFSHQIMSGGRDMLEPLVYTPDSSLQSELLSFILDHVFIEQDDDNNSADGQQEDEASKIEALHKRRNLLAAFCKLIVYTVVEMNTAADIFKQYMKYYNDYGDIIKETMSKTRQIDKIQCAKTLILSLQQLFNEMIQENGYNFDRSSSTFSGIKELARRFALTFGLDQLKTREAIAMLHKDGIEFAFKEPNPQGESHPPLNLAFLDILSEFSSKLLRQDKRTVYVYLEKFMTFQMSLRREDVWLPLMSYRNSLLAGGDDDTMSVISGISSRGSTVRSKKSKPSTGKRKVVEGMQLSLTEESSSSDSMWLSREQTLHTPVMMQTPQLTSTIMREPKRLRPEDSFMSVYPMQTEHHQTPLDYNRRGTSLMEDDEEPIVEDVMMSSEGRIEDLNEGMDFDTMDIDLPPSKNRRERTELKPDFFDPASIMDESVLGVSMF
STAG2^R370Q–RAD21 complex, sequence (O60216 whole entry, chain 2 of 2, further chain): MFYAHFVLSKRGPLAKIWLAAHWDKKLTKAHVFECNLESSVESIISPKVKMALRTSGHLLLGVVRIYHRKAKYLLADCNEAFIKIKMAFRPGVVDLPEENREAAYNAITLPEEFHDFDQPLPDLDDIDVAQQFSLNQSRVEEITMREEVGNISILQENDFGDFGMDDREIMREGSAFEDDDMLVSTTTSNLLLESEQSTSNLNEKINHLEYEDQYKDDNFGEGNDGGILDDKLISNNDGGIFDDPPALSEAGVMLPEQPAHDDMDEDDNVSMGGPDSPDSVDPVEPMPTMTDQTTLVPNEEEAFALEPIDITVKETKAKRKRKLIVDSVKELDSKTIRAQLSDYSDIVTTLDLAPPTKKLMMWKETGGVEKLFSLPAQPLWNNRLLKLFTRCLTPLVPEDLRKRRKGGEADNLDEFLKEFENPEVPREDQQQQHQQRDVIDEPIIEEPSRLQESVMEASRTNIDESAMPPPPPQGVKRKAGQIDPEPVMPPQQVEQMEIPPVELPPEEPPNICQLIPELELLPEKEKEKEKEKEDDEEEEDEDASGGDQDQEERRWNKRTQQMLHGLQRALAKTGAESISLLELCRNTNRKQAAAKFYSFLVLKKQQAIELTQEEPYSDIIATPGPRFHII

**Q.** With CTCF peptide as the substance, how does the fold lower affinity than WT read?
**A.** The fold lower affinity than WT was 10 fold.

Reference: publication PMC11319201
